Data on two proteins can be found in article PMC9860117, “The nematode α-catenin ortholog, HMP1, has an extended α-helix when bound to actin filaments” (The Journal of Biological Chemistry, 2022).

Data set [1] concerns the molecule itself. The data set is described as follows: SEC; Superdex S200 10/300 Gl, 20 mM Tris pH 8, 150 mM NaCl, 0.2 mM TCEP; monomer and dimer peaks pooled separately and each run a second time. A general note: In gel filtration, larger molecules generally elute earlier.
Data set [2] deals with the molecule itself. In words: cryo-EM structure; F-actin (0.7 uM) put on the grid first, then 0.6 mg/ml (21 uM) HMP1/α-catenin FABD added and removed repeatedly; helical reconstruction at 3.36 Å.

B1: full-length human α-catenin (residues 1-906) (natural protein, UniProt P35221 1-906, looked up)
chain: MTAVHAGNINFKWDPKSLEIRTLAVERLLEPLVTQVTTLVNTNSKGPSNKKRGRSKKAHVLAASVEQATENFLEKGDKIAKESQFLKEELVAAVEDVRKQGDLMKAAAGEFADDPCSSVKRGNMVRAARALLSAVTRLLILADMADVYKLLVQLKVVEDGILKLRNAGNEQDLGIQYKALKPEVDKLNIMAAKRQQELKDVGHRDQMAAARGILQKNVPILYTASQACLQHPDVAAYKANRDLIYKQLQQAVTGISNAAQATASDDASQHQGGGGGELAYALNNFDKQIIVDPLSFSEERFRPSLEERLESIISGAALMADSSCTRDDRRERIVAECNAVRQALQDLLSEYMGNAGRKERSDALNSAIDKMTKKTRDLRRQLRKAVMDHVSDSFLETNVPLLVLIEAAKNGNEKEVKEYAQVFREHANKLIEVANLACSISNNEEGVKLVRMSASQLEALCPQVINAALALAAKPQSKLAQENMDLFKEQWEKQVRVLTDAVDDITSIDDFLAVSENHILEDVNKCVIALQEKDVDGLDRTAGAIRGRAARVIHVVTSEMDNYEPGVYTEKVLEATKLLSNTVMPRFTEQVEAAVEALSSDPAQPMDENEFIDASRLVYDGIRDIRKAVLMIRTPEELDDSDFETEDFDVRSRTSVQTEDDQLIAGQSARAIMAQLPQEQKAKIAEQVASFQEEKSKLDAEVSKWDDSGNDIIVLAKQMCMIMMEMTDFTRGKGPLKNTSDVISAAKKIAEAGSRMDKLGRTIADHCPDSACKQDLLAYLQRIALYCHQLNICSKVKAEVQNLGGELVVSGVDSAMSLIQAAKNLMNAVVQTVKASYVASTKYQKSQGMASLNLPAVSWKMKAPEKKPLVKREKQDETQTKIKRASQKKHVNPVQALSEFKAMDSI
notes: cDNA from Open Biosystems; One construct that was isolated as a monomer pool and as a dimer pool; the dimer pool holds two copies of the chain; also called full-length monomeric human α-catenin; full-length dimeric human α-catenin; source: E. coli BL21(DE3), purified similar to HMP1/α-catenin; monomer and dimer SEC peaks pooled separately and run again on Superdex S200; not shown: GST, …
Regarding B1, in data set [1], the stoichiometry N (as a rule, the number of molecules, sites or subunits per partner or assembly) was 2.

B2: HMP1/α-catenin F-actin binding domain (FABD, residues 677-927) (domain or fragment, C. elegans, UniProt P90947 677-927, looked up)
chain: NLMRRLPEEEKKKIQAQIDIFKVTQTRFEREVAKWDETGNDIISLANNMCKIMMSMTEFTRGCGPLKTTMDVIRAAQEISLNGSKLNALARQIGEESADSQTKKDLLAYLSQITLYCQQLNICSKVKADVTQVGNELVVSALDSAMSLIQTARNLLTAVVQTVKAAYIASTKFRRPNANSVRVEWRMAPPKKQPLIRPQKNNAIIRRASERRPLQPAKVLAEFTRNEIETGRDSDDEELDRRHQQRINGRL
notes: Cloned into pGEX-6P-1 with a PreScission site by DNA Custom Cloning; also called HMP1/α-catenin FABD; FABD of HMP1/α-catenin; source: E. coli BL21(DE3), purified as described for full-length HMP1/α-catenin; not shown: GST, N-terminal, cleaved
Regarding B2, the binding result in data set [2] is on record as “binds”.
